We go through two molecules from PMC4198130, “Protein Interactions of the Vesicular Glutamate Transporter VGLUT1” (PLoS ONE, 2014).

Assay [1] deals with T1, GST fusion of the SH3 domain of Fyn (SH3 domain array) (human, UniProt P06241 82-143).
T1 construct: Fyn, human, SH3 domain; source: bought: Panomics/Affymetrix TranSignal SH3 Domain Array (purified GST fusion on a membrane)
The assay can be described thus: peptide or protein array; TranSignal SH3 and WW Domain Arrays (Panomics/Affymetrix): purified GST fusions of human SH3 or WW domains immobilised on a membrane, in duplicate at 100 ng; His-PP1 in solution, detected with anti-His antibody (methods: purified His-PP1; results and legend: bacterial extract with the tagged protein). As to conditions: both partners purified.

In assay [2] the target is T2, GST-Lyn-SH3 (Panomics) (human, UniProt P07948 63-123).
T2 construct: Lyn, human, SH3 domain; also called SH3 domain of Lyn; source: bought: Panomics (purified GST-Lyn-SH3 protein; also on the TranSignal SH3 Domain Array)
The description is as above. As to conditions: both partners purified.

The target in assay [3] is GST fusion of the SH3 domain of Src (SH3 domain array) (human, UniProt P12931 84-145). The assay is described as above. As to conditions: both partners purified.
In assay [4] the target is T3, GST fusion of the SH3 domain of Hck (SH3 domain array) (human, UniProt P08631 78-138).
T3 construct: Hck, human, SH3 domain; source: bought: Panomics/Affymetrix TranSignal SH3 Domain Array (purified GST fusion on a membrane)
Described as above. As to conditions: both partners purified.

In assay [5] the target is T4, GST fusion of the SH3 domain of sorting nexin 9 (Panomics) (human, UniProt Q9Y5X1 1-62).
T4 construct: sorting nexin 9, human, SH3 domain; also called SNX9; source: bought: Panomics/Affymetrix (on the TranSignal SH3 Domain Array; GST fusion for pull-down)
The description is as above. Conditions: both partners purified.

Assay [6] deals with T5, GST fusion of the SH3 domain of EPS8 (Panomics) (human, UniProt Q12929 531-590).
T5 construct: EPS8, human, SH3 domain; source: bought: Panomics/Affymetrix (on the TranSignal SH3 Domain Array; GST fusion for pull-down)
The assay is described as above. As to conditions: both partners purified.

In assay [7] the target is T2, GST-Lyn-SH3 (Panomics). The assay can be described thus: pull-down; GST fusions of SH3 or WW domains on glutathione sepharose beads, incubated with detergent-solubilized (2% TX-100) rat brain extract, RT 60 min; bound VGLUT1 by immunoblot, band intensity normalised to lysate. As to conditions: one partner purified.
The target of assay [8] is T6, GST fusion of the second SH3 domain of Nck1 (human, UniProt P16333 106-165).
T6 construct: Nck1, human, second SH3 domain (D2); also called Nck1 D2
Described as above. As to conditions: one partner purified.

The target of assay [9] is T7, GST fusion of the third SH3 domain of Nck1 (human, UniProt P16333 190-252).
T7 construct: Nck1, human, third SH3 domain (D3); also called Nck1 D3
The description is as above. As to conditions: one partner purified.

Assay [10] has as its target T8, GST fusion of the first SH3 domain of Nck2 (human, UniProt O43639 2-61).
T8 construct: Nck2, human, first SH3 domain (D1); also called Nck2 D1
Described as above. As to conditions: one partner purified.

In assay [11] the target is T9, GST fusion of the SH3 domain of human Lyn (pGEX, from Clifford Lowell) (human, UniProt P07948 63-123).
T9 construct: Lyn, human, SH3 domain; That the pGEX constructs from C; also called GST-Lyn
The assay is described as above. As to conditions: one partner purified.

Assay [12] addresses T10, GST fusion of the SH3 domain of human Fyn (pGEX, from Clifford Lowell) (human, UniProt P06241 82-143).
T10 construct: Fyn, human, SH3 domain; also called GST-Fyn
The assay is described as above. Conditions: one partner purified.

T2 sequence (P07948 63-123): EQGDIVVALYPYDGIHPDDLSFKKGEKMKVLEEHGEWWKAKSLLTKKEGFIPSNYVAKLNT
T1 sequence (P06241 82-143): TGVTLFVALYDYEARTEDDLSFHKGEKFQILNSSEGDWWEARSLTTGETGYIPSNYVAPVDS
T10 sequence (P06241 82-143): as above
T9 sequence (P07948 63-123): as the sequence (P07948 63-123) above
T8 sequence (O43639 2-61): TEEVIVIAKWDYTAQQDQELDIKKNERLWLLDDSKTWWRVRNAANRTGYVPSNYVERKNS
T5 sequence (Q12929 531-590): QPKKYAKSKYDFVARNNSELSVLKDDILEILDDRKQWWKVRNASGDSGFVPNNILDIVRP
T3 sequence (P08631 78-138): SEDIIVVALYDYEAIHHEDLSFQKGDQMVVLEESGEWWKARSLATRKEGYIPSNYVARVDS
T4 sequence (Q9Y5X1 1-62): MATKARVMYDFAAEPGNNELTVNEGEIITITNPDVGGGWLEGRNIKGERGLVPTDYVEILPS

B1: His-tagged VGLUT1 C-terminal peptide (amino acids 513-549) (domain or fragment, rat, UniProt Q62634 513-549, looked up)
chain: HDQLAGSDESEMEDEVEPPGAPPAPPPSYGATHSTVQ
notes: VGLUT1 (vesicular glutamate transporter 1), rat, amino acids 513-549 of the C-terminus (acidic cluster, first polyproline domain PP1, PEST); Cloned in the Ligand Expression Vector (Panomics/Affymetrix); also called His-PP1; His-VGLUT1 PP1; source: E. coli, purified (Ni-NTA, imidazole elution, dialysis) by the methods; soluble bacterial extract by the results and the legend
As to B1, the binding result (in assay [1]; with GST-Lyn-SH3 (Panomics) [2]; in assay [3]; in [4]; in [5]; in assay [6]) was “binds” throughout.

B2: VGLUT1 from rat brain extract (natural protein, rat (endogenous in rat brain), UniProt Q62634 1-560, looked up)
chain: MEFRQEEFRKLAGRALGRLHRLLEKRQEGAETLELSADGRPVTTHTRDPPVVDCTCFGLPRRYIIAIMSGLGFCISFGIRCNLGVAIVSMVNNSTTHRGGHVVVQKAQFNWDPETVGLIHGSFFWGYIVTQIPGGFICQKFAANRVFGFAIVATSTLNMLIPSAARVHYGCVIFVRILQGLVEGVTYPACHGIWSKWAPPLERSRLATTAFCGSYAGAVVAMPLAGVLVQYSGWSSVFYVYGSFGIFWYLFWLLVSYESPALHPSISEEERKYIEDAIGESAKLMNPVTKFNTPWRRFFTSMPVYAIIVANFCRSWTFYLLLISQPAYFEEVFGFEISKVGLVSALPHLVMTIIVPIGGQIADFLRSRHIMSTTNVRKLMNCGGFGMEATLLLVVGYSHSKGVAISFLVLAVGFSGFAISGFNVNHLDIAPRYASILMGISNGVGTLSGMVCPIIVGAMTKHKTREEWQYVFLIASLVHYGGVIFYGVFASGEKQPWAEPEEMSEEKCGFVGHDQLAGSDESEMEDEVEPPGAPPAPPPSYGATHSTVQPPRPPPPVRDY
notes: VGLUT1, endogenous in rat brain; source: endogenous, detergent-solubilized rat brain extract
As for B2, the “band intensity normalised to lysate” value with GST-Lyn-SH3 (Panomics) [7] was 0.718 a.u; in [8], 0.763 a.u; in [9], 0.183 a.u; in assay [10], 0.103 a.u; in assay [11] it was 0.877 a.u; in assay [12] it was 0.362 a.u.
